Patent publication US20220204629A1
Values belong to the binder of their own block, whether it stands above or below them.

Experiments:
[1] = target: mouse Galectin-9 CRD2 (residues 226-353) (mouse) (UniProt O08573); assay: biolayer interferometry, G9.2-17 captured on anti-Fab probes, mouse gal-9 CRD2 in solution, global fit
[2] = target: mouse Galectin-9 CRD2 (residues 226-353) (mouse) (UniProt O08573); assay: bead based binding, mouse CRD2
[3] = target: galectin-9 on the cell surface of the CRL-2134 cell line (human) (UniProt O00182); assay: flow cytometry, saturation curve on CRL-2134 cells
[4] = target: recombinant, full length human Galectin-9 (R&D Systems 2045-GA) (human) (UniProt O00182); assay: cell-based or functional assay
[5] = target: mouse Galectin-9 CRD2 (residues 226-353) (mouse) (UniProt O08573); assay: SPR, One Step method, Pioneer; mouse CRD2
[6] = target: galectin-9 on the cell surface of the CRL-2134 cell line (human) (UniProt O00182); assay: cell based binding, flow cytometry on CRL-2134 cells

Chain of recombinant, full length human Galectin-9 (R&D Systems 2045-GA) (human) (O00182 other isoform, or with tags, fused parts or gaps limits assumed): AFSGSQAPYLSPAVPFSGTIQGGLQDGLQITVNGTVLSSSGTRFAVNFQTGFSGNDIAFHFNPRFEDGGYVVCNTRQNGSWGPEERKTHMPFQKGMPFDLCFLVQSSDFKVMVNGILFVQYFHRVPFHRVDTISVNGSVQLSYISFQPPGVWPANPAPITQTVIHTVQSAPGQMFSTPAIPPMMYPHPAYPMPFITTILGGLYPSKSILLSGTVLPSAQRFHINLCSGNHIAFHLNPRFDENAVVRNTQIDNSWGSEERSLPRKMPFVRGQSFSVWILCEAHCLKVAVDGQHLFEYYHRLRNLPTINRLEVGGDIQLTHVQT

Kd [1]: 1.6 nM | Kd [2]: 0.3 nM | Kd [3]: 0.41 nM | MOLM-13 T cell apoptosis assay [4]: 10% | Kd [5]: 1.8 nM
B1: G9.2-17 human IgG4 (antibody, V domains shown)
VH: EVQLVESGGGLVQPGGSLRLSCAASGFTVSSSSIHWVRQAPGKGLEWVAYISSSSGYTYYADSVKGRFTISADTSKNTAYLQMNSLRAEDTAVYYCARYWSYPSWWPYRGMDYWGQGTLVTVSS
VL: DIQMTQSPSSLSASVGDRVTITCRASQSVSSAVAWYQQKPGKAPKLLIYSASSLYSGVPSRFSGSRSGTDFTLTISSLQPEDFATYYCQQSSTDPITFGQGTKVEIKR

Kd [6]: 2.91 nM | Kd [2]: 0.3 nM | Kd [3]: 2.9 nM | Kd [5]: 3.05 nM
B2: G9.2-17 mIgG1 (antibody, V domains shown)
VH: B1 VH
VL: B1 VL
